Data: US20100221257A1

Biological target: Antibody 6 (Eu3+ cryptate labelled, Example 5)
Assay: HTRF competition: unlabelled test protein (maximum 100 nM) against biotin labelled human IL-1R1/Fc binding to cryptate labelled antibody

Antibody 6 (Eu3+ cryptate labelled, Example 5), sequence (VH, as listed by the source, chain 1 of 2): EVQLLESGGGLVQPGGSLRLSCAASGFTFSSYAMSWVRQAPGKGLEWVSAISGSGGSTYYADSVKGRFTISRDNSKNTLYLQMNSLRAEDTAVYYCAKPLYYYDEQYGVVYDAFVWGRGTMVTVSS
Antibody 6 (Eu3+ cryptate labelled, Example 5), sequence (VL, as listed by the source, chain 2 of 2): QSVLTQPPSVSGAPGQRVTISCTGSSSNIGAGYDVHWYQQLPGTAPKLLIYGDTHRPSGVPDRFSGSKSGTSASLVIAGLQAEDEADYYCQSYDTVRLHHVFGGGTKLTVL

percentage inhibition at the highest concentration of chimera: 66%
B1: MoIL-1R1 (mouse IL-1R1 extracellular domain Fc fusion) (Fc fusion, UniProt P13504 20-338, looked up, not shown: a dimerising Fc or GST)
chain: LEIDVCTEYPNQIVLFLSVNEIDIRKCPLTPNKMHGDTIIWYKNDSKTPISADRDSRIHQQNEHLWFVPAKVEDSGYYYCIVRNSTYCLKTKVTVTVLENDPGLCYSTQATFPQRLHIAGDGSLVCPYVSYFKDENNELPEVQWYKNCKPLLLDNVSFFGVKDKLLVRNVAEEHRGDYICRMSYTFRGKQYPVTRVIQFITIDENKRDRPVILSPRNETIEADPGSMIQLICNVTGQFSDLVYWKWNGSEIEWNDPFLAEDYQFVEHPSTKRKYTLITTLNISEVKSQFYRYPFICVVKNTNIFESAHVQLIYPVPDFK
